Measurements reported in patent publication US20080207488A1, “Method for Detecting Peptides Comprising a Cross-B Structure” (priority 2005, published 2008).
Each block holds one molecule with its values, some of them ahead of it.

How the values were obtained:
[1] = ThT fluorescence of CpG-ODN-protein mixtures; format: physicochemical; conditions: for increased ThT fluorescence: 1 mg ml^−1 protein exposed to 21.4 μg ml^−1 CPG-ODN (FIG. 4F); for increase in ThT fluorescence: 1 mg ml^−1 protein, 30 min. at room temperature (FIG. 4D, E)
Description: (§1) Fluorescence of ThT-protein/peptide adducts was measured as follows. […] Fluorescence was measured at 485 nm upon excitation at 435 nm. Background signals from buffer, buffer with ThT and protein/peptide solution without ThT were subtracted from corresponding measurements with protein solution incubated with ThT. […] Fluorescence was measured in triplicate on a Hitachi F-4500 fluorescence spectrophotometer (Ltd., Tokyo, Japan).
Enhancement of ThT fluorescence was measured similarly as described above. […]

[2] = ThT fluorescence of LPS-protein mixtures; format: physicochemical
Description: as §1
Subsequently, the ability to enhance ThT fluorescence was determined with 40× diluted solution, as described above. […]

tPA = target: T1, tPA (Homo sapiens, UniProt P00750); experiment: Plasminogen-activation assay (tPA-mediated Plg to Pls, S-2251); format: biochemical; conditions: 100 μg ml^−1 protein
T1 construct: purchased Boehringer-Ingelheim (Actilyse, Alteplase)
Description: Plasmin (Pls) activity was assayed as described^7. Peptides and proteins that were tested for their stimulatory ability were regularly used at 100 μg ml^−1. […] Chromogenic substrate S-2251 (Chromogenix, Instrumentation Laboratory SpA, Milano, Italy) was used to measure Pls activity. Conversion of zymogen factor XII (#233490, Calbiochem, EMD Biosciences, Inc., San Diego, Calif.) to proteolytically active factor XII (factor XIIa) was assayed by measurement of the conversion of chromogenic substrate Chromozym-PK (Roche Diagnostics, Almere, The Netherlands) by kallikrein. Chromozym-PK was used at a concentration of 0.3 mM. Factor XII, human plasma prekallikrein (#529583, Calbiochem) and human plasma cofactor high-molecular weight kininogen (#422686, Calbiochem) were used at concentrations of 1 μg ml^−1. […] Assays were performed using microtiter plates (Costar, Cambridge, Mass., USA). Peptides and proteins were tested for their ability to activate factor XII. […] The conversion of Chromozym-PK was recorded kinetically at 37° C. for at least 60 minutes. […] With S-2222, activation of factor XII in plasma was measured, using 60% v/v plasma, diluted with substrate and H2O with or without potential cofactor. Furthermore, auto-activation of factor XII was measured by incubating 53 μg ml^−1 purified factor XII in 50 mM Tris-HCl buffer pH 7.5 with 1 mM EDTA and 0.001% v/v Triton-X100, with S-2222 and H2O with or without potential cofactor.
Formulated protein therapeutics were obtained from the local hospital pharmacy and were used as supplied by the manufacturers. […] Enhancement in fluorescence of ThT and Congo red was measured with all formulated protein therapeutics. […]
To prepare structurally altered ovalbumin (OVA) with amyloid cross-β structure conformation, purified OVA (Sigma, A-7641, lot 071k7094) was heated to 85° C. […] Native OVA (nOVA) and heat-denatured OVA (dOVA) were tested in the ThT fluorescence assay and in the Plg-activation assay. In the fluorescence assay and in the Plg-activation assay, 25 and 100 μg ml^−1 nOVA and dOVA were tested, respectively. […]

Balb/c mice = experiment: Immunization of Balb/c mice with ovalbumin and amyloid-like ovalbumin; format: in vivo; conditions: without adjuvant
Description: Eight to ten weeks old female Balb/c mice are immunized with OVA according to two immunization regimes (Central Animal Laboratories, Utrecht University, The Netherlands). Pre-immune serum was collected prior to the immunizations. In one regime two groups of five mice were subcutaneously injected five consecutive days per week, for three consecutive weeks. Doses comprised 10 μg native OVA or heat-denatured OVA for each injection. Alternatively, according to the second protocol, three groups of five mice were injected once intraperitoneally with doses comprising 5 μg nOVA, 5 μg OVA or 5 μg native OVA mixed 1:1 with complete Freund's adjuvant (CFA). Each week, blood was taken. After three weeks, a second dose was given. Incomplete Freund's adjuvant (IFA) was used instead of CFA. Blood was taken after one week after the start of the immunization. Antibody titers in sera were determined and sera were analyzed for the presence of cross-β structure conformation specific antibodies. For this purpose, nOVA was coated onto wells of 96-wells ELISA plates and incubated with dilution series of sera. Sera of the groups of five mice were pooled prior to the analyses. Plates were washed and subsequently incubated with peroxidase-conjugated rabbit anti-mouse immunoglobulins (RAMPO, P0260, DAKOCytomation, Glostrup, Denmark). Plates were subsequently developed with tetramethylbenzidine (TMB) substrate. […]

[3] = target: T2, human fibronectin finger 4,5 (Fn F4,5) fragment (Homo sapiens, UniProt P02751); experiment: ELISA, binding of fibronectin F4,5 to coated (mis)folded proteins; conditions: coated protein, FIG. 7D-H
T2 construct: human fibronectin finger 4,5 (Fn F4,5) fragment; made in house; host or cells: HEK293E cells, transient transfection, protein purified from the medium
Description: The plates were blocked using Blocking reagent (Roche 1112589). A dilution series of the protein of interest was applied to the coated proteins and wells were subsequently washed using TBS-T (50 mM Tris pH 7.3, 150 mM NaCl and 0.1% Tween20). Bound protein is detected by the FLAG-tag using 1:3000 anti-FLAG-HRP (Sigma A-8592) in PBS-T, or by 1:1000 Ni-NTA-HRP (Qiagen 34530) in PBS-T. The HRP reaction Is performed using the TMB substrate (Biosource 4501103 or Tebu Bio 101TMB100-500), stopped using 10% H2SO4 and absorbance was measured at 450 nm.

[4] = system: anti-β2GPI auto-antibodies; experiment: Interference with binding of anti-β2GPI autoantibodies to immobilized β2GPI; parameters: species or system human; conditions: antibodies from Anti-phospholipid syndrome patients
Description: When plasma derived β2GPI is coated onto hydrophilic ELISA plates, anti-β2GPI auto-antibodies isolated from plasma of antiphospholipid syndrome auto-immune patients can bind^14. To study the influence of co-incubations of the coated β2GPI with the antibodies together with plasma β2GPI or recombinant β2GPI, concentration series of β2GPI were added to the patient antibodies. Subsequently, binding of the antibodies to coated β2GPI was determined.

[5] = ThT fluorescence of β2GPI with or without CL vesicles or DXS500k; format: physicochemical
Description: ThT fluorescence of β2GPI was measured as follows. […] CL vesicles were prepared according to an established procedure. Briefly, CL was dried under a stream of nitrogen. The lipids were resuspended to a concentration of 10 mg ml^−1 in 25 mM Tris-HCl, pH 7.3, 150 mM NaCl by vigorous agitation, using a vortex. In the ThT fluorescence assay, fluorescence of β2GPI in buffer, of CL or DXS500k in buffer, of buffer and ThT alone, and of β2GPI-CL adducts and β2GPI-DXS500k adducts, with or without ThT, was recorded as described above (section ThT fluorescence). In addition, TEM images were recorded with CL, β2GPI from human plasma, with or without CL, and with recombinant β2GPI, as described^1.

[6] = 1 mg ml^−1 protein exposed to 600 μg ml^−1 LPS (FIG. 4C)

T1 sequence (P00750 36-562): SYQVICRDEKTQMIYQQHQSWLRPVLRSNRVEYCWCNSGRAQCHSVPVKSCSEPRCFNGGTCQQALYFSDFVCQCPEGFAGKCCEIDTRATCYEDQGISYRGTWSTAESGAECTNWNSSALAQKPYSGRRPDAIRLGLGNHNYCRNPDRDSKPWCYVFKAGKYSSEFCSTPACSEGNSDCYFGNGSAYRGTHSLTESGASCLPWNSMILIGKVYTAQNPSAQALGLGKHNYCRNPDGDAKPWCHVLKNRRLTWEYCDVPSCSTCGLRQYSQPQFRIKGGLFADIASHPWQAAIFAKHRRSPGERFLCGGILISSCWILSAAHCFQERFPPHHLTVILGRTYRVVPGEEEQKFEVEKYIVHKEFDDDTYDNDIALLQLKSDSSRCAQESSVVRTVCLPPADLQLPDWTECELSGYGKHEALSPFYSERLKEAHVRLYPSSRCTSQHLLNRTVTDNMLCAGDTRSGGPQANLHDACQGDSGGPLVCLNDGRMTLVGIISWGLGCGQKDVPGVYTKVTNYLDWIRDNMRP
T2 sequence (P02751 182-276 limits assumed): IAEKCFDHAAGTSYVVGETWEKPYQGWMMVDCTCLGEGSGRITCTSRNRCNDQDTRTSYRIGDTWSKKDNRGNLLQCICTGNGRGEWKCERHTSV

B1: endostatin: protein therapeutic endostatin (EntreMed, Inc.) (protein)
chain: HSHRDFQPVLHLVALNSPLSGGMRGIRGADFQCFQQARAVGLAGTFRAFLSSRLQDLYSIVRRADRAAVPIVNLKDELLFPSWEALFSGSEGPLKPGARIFSFDGKDVLRHPTWPQKSVWHGSDPNGRRLTESYCETWRTEAPSATGQASSLLGGRLLGQSAASCHHAYIVLCIENSFMTASK
increased ThT fluorescence [1]: approximately 10 factor
increase in ThT fluorescence ([1]; 10.4 μg ml^−1 CPG-ODN): ~39 times
increase in ThT fluorescence ([1]; 21.7 μg ml^−1 CPG-ODN): ~56 times
ThT fluorescence enhancement ([2]; 200 μg ml^−1 LPS (FIG. 4D, E)): approximately 8 times
ThT fluorescence enhancement ([2]; 400 μg ml^−1 LPS (FIG. 4D, E)): ~20 times
ThT fluorescence enhancement ([2]; 600 μg ml^−1 LPS (FIG. 4D, E)): ~26 times
ThT fluorescence enhancement [2, 6]: approximately 10 times
stimulation of tPA-mediated conversion of Plg to Pls (tPA): absence of tPA activating properties

B2: nOVA: native chicken ovalbumin (protein)
chain: GSIGAASMEFCFDVFKELKVHHANENIFYCPIAIMSALAMVYLGAKDSTRTQINKVVRFDKLPGFGDSIEAQCGTSVNVHSSLRDILNQITKPNDVYSFSLASRLYAEERYPILPEYLQCVKELYRGGLEPINFQTAADQARELINSWVESQTNGIIRNVLQPSSVDSQTAMVLVNAIVFKGLWEKAFKDEDTQAMPFRVTEQESKPVQMMYQIGLFRVASMASEKMKILELPFASGTMSMLVLLPDEVSGLEQLESIINFEKLTEWTSSNVMEERKIKVYLPRMKMEEKYNLTSVLMAMGITDVFSSSANLSGISSAESLKISQAVHAAHAEINEAGREVVGSAEAGVDAASVSEEFRADHPFLFCIKHIATNAVLFFGRCVSP
anti-nOVA antibody titers in pooled sera (Balb/c mice): Titers were also obtained

affinity of fibronectin F4,5 (detection anti-FLAG HRP) [3]: acted as its native control
B3: reduced and alkylated OVA: reduced and alkylated ovalbumin (protein)
chain: B2 chain

inhibition of binding of anti-β2GPI auto-antibodies to immobilized β2GPI [4]: efficiently inhibits binding
B4: recombinant β2GPI: recombinant human β2-glycoprotein I made using insect cells (protein)
chain: GRTCPKPDDLPFSTVVPLKTFYEPGEEITYSCKPGYVSRGGMRKFICPLTGLWPINTLKCTPRVCPFAGILENGAVRYTTFEYPNTISFSCNTGFYLNGADSAKCTEEGKWSPELPVCAPIICPPPSIPTFATLRVYKPSAGNNSLYRDTAVFECLPQHAMFGNDTITCTTHGNWTKLPECREVKCPFPSRPDNGFVNYPAKPTLYYKDKATFGCHDGYSLDGPEEIECTKLGNWSAMPSCKASCKVPVKKATVVYQGERVKIQEKFKNGMLHGDKVSFFCKNKEKKCSYTEDAQCIDGTIEVPKCFKEHSSLAFWKTDASDVKPC
increased ThT fluorescence [1]: approximately 5 factor
ThT fluorescence enhancement [2, 6]: ~4 times
stimulation of tPA-mediated conversion of Plg to Pls (tPA): stimulate tPA-mediated conversion of Plg to Pls
ThT fluorescence after exposure to CL vesicles or DXS ([5]; 25 μg ml^−1 β2GPI, 100 μM CL vesicles or 250 μg ml^−1 DXS): increased fluorescence of ThT
ThT fluorescence signal of β2GPI preparation ([5]; without CL or DXS500k): higher ThT fluorescence signal
